Results from US20170211072A1 (COLD SPRING HARBOR LABORATORY, published 2017).
One block for each binder: values may come before it.

Assays:
p53Ψ [1] = target: T1, p53Ψ (Homo sapiens (Human), UniProt P04637 1-225); experiment: co-immunoprecipitation from submitochondrial fractions with an anti-p53 N-terminal antibody, immunoblot
T1 construct: Whole p53Ψ isoform expressed ectopically in A549 cells; It was tested in submitochondrial fractions by co-immunoprecipitation; also called p53-psi; p53Ψ isoform

empty GST proteins = target: T2, empty GST proteins (UniProt P08515 1-218 = GST); experiment: GST pull-down with purified proteins
T2 construct: Negative control of the pull-down

p53Ψ [2] = target: T1, p53Ψ; experiment: co-immunoprecipitation from submitochondrial fractions, immunoblot

T2 sequence (P08515 whole entry): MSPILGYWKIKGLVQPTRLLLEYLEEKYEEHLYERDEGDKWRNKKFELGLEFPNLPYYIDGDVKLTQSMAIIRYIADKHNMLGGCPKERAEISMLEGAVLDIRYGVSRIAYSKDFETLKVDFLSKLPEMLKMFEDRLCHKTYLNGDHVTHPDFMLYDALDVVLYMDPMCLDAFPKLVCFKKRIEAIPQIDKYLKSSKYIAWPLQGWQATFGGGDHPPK

binding result (p53Ψ [1]): no binding
B1: MnSOD (enzyme, UniProt P04179 25-222, looked up)
chain: KHSLPDLPYDYGALEPHINAQIMQLHHSKHHAAYVNNLNVTEEKYQEALAKGDVTAQIALQPALKFNGGGHINHSIFWTNLSPNGGGEPKGELLEAIKRDFGSFDKFKEKLTAASVGVQGSGWGWLGFNKERGHLQIAACPNQDPLQGTTGLIPLLGIDVWEHAYYLQYKNVRPDYLKAIWNVINWENVTERYMACKK
notes: Endogenous protein of A549 cells, a human cell line; also called SOD2

B2: purified p53Ψ (aa 102-243) (other)
chain: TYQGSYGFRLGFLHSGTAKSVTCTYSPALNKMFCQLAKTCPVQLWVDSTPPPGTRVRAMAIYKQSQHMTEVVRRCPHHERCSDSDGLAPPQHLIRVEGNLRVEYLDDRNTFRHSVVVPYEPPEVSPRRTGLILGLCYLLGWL
notes: Purified recombinant fragment used in the GST pull-down; also called recombinant p53Ψ
binding result (empty GST proteins): no binding

binding result (p53Ψ [2]): no binding
B3: BAK (other, UniProt Q16611 2-211, looked up)
chain: ASGQGPGPPRQECGEPALPSASEEQVAQDTEEVFRSYVFYRHQQEQEAEGVAAPADPEMVTLPLQPSSTMGQVGRQLAIIGDDINRRYDSEFQTMLQHLQPTAENAYEYFTKIATSLFESGINWGRVVALLGFGYRLALHVYQHGLTGFLGQVTRFVVDFMLHHCIARWIAQRGGWVAALNLGNGPILNVLVVLGVVLLGQFVVRRFFKS
